B1: PLAGL1 (parent)
chain: EKPPSGTKEKKHQCDHCERCFYTR
B2: RIPK4 (parent)
chain: AAWQGHLPIVKLLAKQPGVSVNAQ

Variants of: B1
Experiment: protein stability index of a GFP-peptide fusion (GPS, HEK-293T) (PSI 1-6); higher = more stable
Details: c terminus: a fixed tail appended
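Further: lentivirally expressed fusions sorted by FACS into six bins by GFP to DsRed ratio, PSI derived from sequencing read proportions per bin multiplied by bin number.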

Protein stability index of substitutions, site by site:
K11: W 4.32
H16: W 2.9
K2: H 3.65
P4: Q 3.48
E9: V 3.37
C20: E 3.37
P3: D 4.19 | N 3.94
E18: S 2.42
K8: D 4.33
E1: P 3.22
F21: T 4.26
S5: I 3.97 | G 3.53
H12: A 2.44

Variants of: B2
Experiment: as above
Details: c terminus: a fixed tail appended

Protein stability index of substitutions, site by site:
I9: H 2.47 | Q 2.78 | Y 2.45 | V 2.64 | T 3.02 | A 3.49 | F 2.36 | P 3.45 | N 1.79 | S 2.83 | E 2.55 | G 2.14 | C 3.1 | W 2.63
H6: I 2.65 | F 1.41 | T 2.32 | S 1.84 | A 2.54 | D 2.98 | Y 1.1 | Q 2.76 | E 2.81 | V 4 | P 2.67 | M 1.86 | N 2.2 | L 1.45
G18: S 2.54 | T 2.54 | C 1.72 | K 2.46 | Y 2.08 | L 2.07 | R 1.69 | V 1.92 | F 1.51 | D 3.03 | P 2.28 | A 2.67 | Q 2.53 | W 1.36 | I 2.01 | N 2.07 | H 2.55 | M 1.61
K11: T 2.1 | Y 1.94 | G 3 | R 1.72 | I 1.4 | P 3.07 | S 1.58 | V 1.84 | A 1.76 | Q 2.35 | M 2.13 | E 3.62 | N 2.4 | H 2.15 | C 3.38
S20: D 2.55 | C 2.88 | F 1.64 | G 2.63 | A 2.3 | H 1.97 | E 2.79
Q16: L 2 | H 2.97 | G 2.93 | S 2.56 | N 2.95 | Y 1.97 | P 2.27 | D 3.25 | M 2.22 | W 1.55 | I 1.42 | K 2.77 | E 3.78 | T 2.5 | V 2.14 | C 2 | A 2.54 | R 2.26
P8: Q 1.85 | A 1.63 | F 3.42 | G 1.8 | H 2.08 | N 1.78 | S 1.78 | C 3.63 | K 1.07 | D 2.25
Q4: P 3.34 | F 1.24 | I 1.34 | M 1.94 | A 1.93 | C 3.15 | G 2.56 | N 2.06 | D 2.62 | Y 1.51 | W 1.61 | V 1.7 | T 2.65 | E 2.45 | S 2.18 | H 3.18 | L 1.32 | R 1.89
L7: V 2.65 | F 2.71 | C 2.21 | G 3.01 | R 5.04 | M 2.33 | N 3.36 | T 2.29 | D 3.03 | A 2.1 | Y 2.05 | I 2.76 | W 1.81 | S 2.8 | P 3.21 | E 3.31 | Q 3.55
K15: R 2.06 | L 1.82 | P 1.28 | I 2.82 | D 3.15 | T 2.88 | W 2.04 | N 3.56 | E 2.73 | G 2.58 | A 2.56 | F 2.26 | M 2.11 | C 1.67 | H 2.43 | Q 1.81 | S 2.16
A1: C 2.18 | G 1.34 | H 2.77 | F 3.12

Reference: the supplement of paper PMC10567573
